Measured values taken from IntAct's records for PubMed 7851759.

B1: Serine/threonine-protein kinase STE11 (Saccharomyces cerevisiae), P23561 (parent)
chain: MEQTQTAEGTDLLIGDEKTNDLPFVQLFLEEIGCTQYLDSFIQCNLVTEEEIKYLDKDILIALGVNKIGDRLKILRKSKSFQRDKRIEQVNRLKNLMEKVSSLSTATLSMNSELIPEKHCVIFILNDGSAKKVNVNGCFNADSIKKRLIRRLPHELLATNSNGEVTKMVQDYDVFVLDYTKNVLHLLYDVELVTICHANDRVEKNRLIFVSKDQTPSDKAISTSKKLYLRTLSALSQVGPSSSNLLAQNKGISHNNAEGKLRIDNTEKDRIRQIFNQRPPSEFISTNLAGYFPHTDMKRLQKTMRESFRHSARLSIAQRRPLSAESNNIGDILLKHSNAVDMALLQGLDQTRLSSKLDTTKIPKLAHKRPEDNDAISNQLELLSVESGEEEDHDFFGEDSDIVSLPTKIATPKNWLKGACIGSGSFGSVYLGMNAHTGELMAVKQVEIKNNNIGVPTDNNKQANSDENNEQEEQQEKIEDVGAVSHPKTNQNIHRKMVDALQHEMNLLKELHHENIVTYYGASQEGGNLNIFLEYVPGGSVSSMLNNYGPFEESLITNFTRQILIGVAYLHKKNIIHRDIKGANILIDIKGCVKITDFGISKKLSPLNKKQNKRASLQGSVFWMSPEVVKQTATTAKADIWSTGCVVIEMFTGKHPFPDFSQMQAIFKIGTNTTPEIPSWATSEGKNFLRKAFELDYQYRPSALELLQHPWLDAHII
B2: Serine/threonine-protein kinase STE11 (Saccharomyces cerevisiae), P23561 (parent)
chain: B1 chain
partner: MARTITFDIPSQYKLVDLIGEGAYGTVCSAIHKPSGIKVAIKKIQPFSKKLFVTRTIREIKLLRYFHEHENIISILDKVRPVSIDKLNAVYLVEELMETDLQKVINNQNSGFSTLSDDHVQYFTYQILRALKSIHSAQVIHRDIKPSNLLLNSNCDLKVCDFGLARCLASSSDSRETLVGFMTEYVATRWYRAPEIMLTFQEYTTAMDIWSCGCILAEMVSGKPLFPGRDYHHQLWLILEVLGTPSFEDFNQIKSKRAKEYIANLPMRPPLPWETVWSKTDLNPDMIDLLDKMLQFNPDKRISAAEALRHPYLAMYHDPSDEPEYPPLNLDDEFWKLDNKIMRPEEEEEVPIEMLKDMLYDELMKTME
B3: Serine/threonine-protein kinase STE11 (Saccharomyces cerevisiae), P23561 (parent)
chain: B1 chain
partner: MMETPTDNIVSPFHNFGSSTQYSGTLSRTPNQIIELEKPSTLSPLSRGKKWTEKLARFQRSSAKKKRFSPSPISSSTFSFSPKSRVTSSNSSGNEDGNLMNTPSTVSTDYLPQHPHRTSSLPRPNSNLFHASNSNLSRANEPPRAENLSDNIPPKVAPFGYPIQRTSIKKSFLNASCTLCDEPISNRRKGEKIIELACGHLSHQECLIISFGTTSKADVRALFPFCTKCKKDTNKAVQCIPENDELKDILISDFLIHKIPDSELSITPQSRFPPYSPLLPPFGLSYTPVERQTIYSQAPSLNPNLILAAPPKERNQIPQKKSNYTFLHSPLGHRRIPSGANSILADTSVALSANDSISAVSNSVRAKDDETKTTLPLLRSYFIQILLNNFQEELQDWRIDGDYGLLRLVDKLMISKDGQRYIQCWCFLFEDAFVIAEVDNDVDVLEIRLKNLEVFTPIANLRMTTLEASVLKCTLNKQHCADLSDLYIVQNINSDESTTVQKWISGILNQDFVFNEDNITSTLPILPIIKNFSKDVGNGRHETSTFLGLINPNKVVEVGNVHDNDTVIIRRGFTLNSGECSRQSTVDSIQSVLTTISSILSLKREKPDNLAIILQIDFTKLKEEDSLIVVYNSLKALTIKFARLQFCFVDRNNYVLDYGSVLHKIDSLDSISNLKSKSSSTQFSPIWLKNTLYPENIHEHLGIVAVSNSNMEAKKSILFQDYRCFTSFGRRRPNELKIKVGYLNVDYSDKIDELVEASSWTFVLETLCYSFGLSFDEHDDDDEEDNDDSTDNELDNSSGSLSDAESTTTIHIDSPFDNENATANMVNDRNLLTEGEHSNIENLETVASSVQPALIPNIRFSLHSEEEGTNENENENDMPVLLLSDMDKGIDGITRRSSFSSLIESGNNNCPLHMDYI

Variants of: B1
Settings: with fus3_yeast FUS3, P16892
Sequence of fus3_yeast FUS3, P16892 (P16892 whole entry): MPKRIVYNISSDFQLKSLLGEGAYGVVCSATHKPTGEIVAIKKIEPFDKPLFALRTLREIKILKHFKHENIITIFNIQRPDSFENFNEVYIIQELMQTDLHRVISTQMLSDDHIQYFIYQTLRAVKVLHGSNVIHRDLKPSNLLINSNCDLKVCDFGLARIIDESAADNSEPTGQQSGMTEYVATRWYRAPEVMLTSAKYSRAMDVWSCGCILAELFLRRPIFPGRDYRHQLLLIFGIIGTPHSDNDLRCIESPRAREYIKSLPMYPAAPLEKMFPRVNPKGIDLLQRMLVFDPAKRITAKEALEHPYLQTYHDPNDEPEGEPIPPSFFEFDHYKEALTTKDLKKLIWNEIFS

effect of a mutation on the interaction | Variant
decreasing interaction | P279S

Variants of: B2
Settings: with kss1_yeast KSS1, P14681

effect of a mutation on the interaction | Variant
decreasing interaction | P279S

Variants of: B3
Settings: with ste5_yeast STE5, P32917

effect of a mutation on the interaction | Variant
increasing interaction | P279S
